Data taken from CN117700556A (SUZHOU ABCARTA MEDICAL TECH CO LTD; XIANGYA HOSPITAL …, dated 2024).

Key:
FRα抗原(SEQ ID NO:1)合成多肽 = target: T1, FRα抗原(SEQ ID NO:1)合成多肽; experiment: ELISA screening of hybridoma clones on the SEQ ID NO:1 peptide
T1 construct: KLH-coupled for immunisation; also called FRα的多肽
T1 peptide: RIAWARTELLNV

[1] = target: T2, 叶酸受体α(Folate receptor alpha，FRα) (human, UniProt P15328 25-234); experiment: immunohistochemistry on FFPE ovarian and breast cancer tissue, antibody at 0.5 μg/mL
T2 construct: whole, on cells; also called FRα蛋白
T2 sequence (P15328 25-234): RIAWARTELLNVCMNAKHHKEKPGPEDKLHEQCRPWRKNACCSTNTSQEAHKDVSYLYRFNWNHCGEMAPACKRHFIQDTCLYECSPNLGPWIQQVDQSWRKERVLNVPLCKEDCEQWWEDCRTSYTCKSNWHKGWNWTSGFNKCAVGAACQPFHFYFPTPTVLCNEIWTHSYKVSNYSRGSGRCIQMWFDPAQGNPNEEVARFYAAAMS

binding result (FRα抗原(SEQ ID NO:1)合成多肽): binds
binding result [1]: binds
B1: 436I6G8抗FRα小鼠单克隆抗体 (antibody, V domains shown)
VH: EVQLQQSGVELVRSGASVKVSCTPSGFNIKDYFINWVKQRPEQGLEWIGWIDPENGDTEYAPKFQGKATMTADTSSNTAYLQLSSLTSEDTAVYYCYAERVVYWGQGTLITVSA
VL: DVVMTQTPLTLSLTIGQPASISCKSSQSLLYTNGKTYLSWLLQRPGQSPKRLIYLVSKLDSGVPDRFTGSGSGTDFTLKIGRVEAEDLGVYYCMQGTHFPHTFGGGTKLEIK
notes: Variable regions were cloned into InvivoGen pFUSE-CHIg-mG1 and pFUSE2-CLIg-mK (mouse IgG1 heavy, mouse kappa light constant regions); also called 436I6G8克隆的FRα小鼠单克隆抗体; 436I6G8抗FRα单克隆抗体
